Reference: patent US20180217132, “MEASUREMENT METHOD AND MEASUREMENT DEVICE” (KYOCERA CORPORATION, published 2018)

Molecular target: Hemoglobin A0 (HbA0) (UniProt P69905;P68871 P69905:2-142,P68871:2-147)
Experiment: SPR; Biacore T200, HBS-P + 1 mM MgCl2 pH 7.4; method of Kd not explicitly stated
Conditions: tags: none; denatured

Chain of Hemoglobin A0 (HbA0) (P69905 2-142, chain 1 of 2): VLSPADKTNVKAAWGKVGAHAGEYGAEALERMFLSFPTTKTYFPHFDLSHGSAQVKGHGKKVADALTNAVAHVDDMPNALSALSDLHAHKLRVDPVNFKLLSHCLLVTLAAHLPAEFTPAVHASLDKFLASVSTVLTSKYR
Chain of Hemoglobin A0 (HbA0) (P68871 2-147, chain 2 of 2): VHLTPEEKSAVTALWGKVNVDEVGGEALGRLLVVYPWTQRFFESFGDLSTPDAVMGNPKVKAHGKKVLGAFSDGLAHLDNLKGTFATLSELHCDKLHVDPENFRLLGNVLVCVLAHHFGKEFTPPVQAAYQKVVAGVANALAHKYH

B1: RNA aptamer A (ssRNA)
RNA: GGGAUAGGAUCCACAUCUACGUAUUACGGCAUUAUUAGGACCAAUGCUGAGUACGGCGCACAGCUUUUUUCACUGCAGACUUGACGAAGCUUAAAAAAAAAAAAAAAAAA
modifications: 2'-F at A and U
Binder B1 has a Kd of 160 nM.
